Experimental data from a protein production outcome set (Wang et al. 2014).

Test: label from the status in PepcDB records

Sequence	protein production
MIWILASLIAGIALRAWSVFILPLAYIIGRRNRDLGLLTYFLYGVLLVREVFVRDLISEEAFVSLGLLVPSVLALREIGEEFRVDVRGLVGLGVMSLGFIYKPALVLGVIITGISSIPWIELSILTLLFLVSYVAREHQELVVVGFVLVMSILLAKPIERREMRVKSGRGF	failed
MIWIVGSGTCRGQTTERAKEIIERAEVIYGSRRALELAGVVDDSRARILRSFKGDEIRRIMEEGREREVAVISTGDPMVAGLGRVLREIAEDVEIKIEPAISSVQVALARLKVDLSEVAVVDCHAKDFDAELTELLKYRHLLILADSHFPLERLGKRRVVLLENLCMEGERIREGNADSIELESDYTIIFVEREVME	not failed
MIYEGAVFRPPSEASSLILQVSLGCRHNQCTFCSMYKGKSFRIRSIEEIMDMIDAGSKAYPHMERIFLADGDALAVETDVLSNVLETLYQRFPRLKRVGIYGGPKDILEKSPAELARLKEQGLSIVYLGVESGSGLILNLIRKGVTPEEMINAGQKVVASGLKLSCTIILGLGGRERSPEHAVETGKVISAINPHYLGALTLMLAPDAPLTQKIKSGEFTPLNKWESLIELELMVQGLNLKDCLFRSNHASNYLPLKAHLPHDKATLLSTLKEVIEENREEVLRPEYWRGL	failed
MIYEPAEDSELLLEAALRELKPDDEVIEVGAGSGFVAERLKGKCKCILTTDISPFAAMELRRKGLDVVMTDIAKGIRKKFSLVLFNPPYVELEDELRRGDWLDVAIDGGKKGVKVIKKFLDSLDEIMAERGRAILIASSQNEPDVFDLIDERGFRYEIVGERGLFFEKLFAIKIWKE	failed
MKADILLVSHSKMITDGIKEMIEQMNASEEITIHSLGGTSDGSLGSDPMKIIDTINEADSDREFLIFADLGSAVLSSELAFDMLEEDQQKHYHLVDAPLVEGAFASAITAGVSDDLTQILAEAQNAGKKGWN	not failed
MKAEFEEASGLTAGNPVRMKGVNVGSVESIRLNQETQTVRARLRIEEGIRIPEGSHAKVAGFSGIGGVRISILPGPRENPPLPPDATLSAPPEGSVFDRLTDQAPALANKADSVLTSTNTTMSALSTQLQDPDSDLRQALTSAKNITGDLESVTEAEKETLRALLQNLQSVSSDLDTFMGENGDSLDVAVRRLNESLDRLNRGLASLEQTSATLDTVATKLNEGDGTAGRLLNDPSLYLRLDSAAARTNTLLQDFQRDPGRYLNDMTLVKVF	failed
MKAGYETMTPEELRRLTATHDEADYEIVDVREPAEYRQGHLPGAKHIPVGEVEARLDELVPGRTHIFYCRSGARSRAALTFAVESGLTLGPLYDLAGGILAWDGHTVPDEPRLATFAHVSDMRSLLLRAIDMEKAVHGLYTRVRAASGRPVVCELMDRLVGVEVAHARVIYRELRKWWAAADGELPPFETLFETLEGRVLEGGRSVDELEPWIRSASTGDCHEVADLALELEFAAYDLYRTLADEAVQGSGLGEDAARVFLDLASQEKAHARMIVAAMARFGEEGADATA	failed
MKALFFTRMFTLMVSCLMYLSIVKEDNWFGYVFIAAGAAMYAANHVLLTKETNAIWFCLIDIAIGFSFGFIFPGTGLFIIMLCPVAVAFFLRGFPKRTAWSVLCLSSILFLTVLIRTYAMFGNEFVIDHLTSMTFVVFCGVVGKLIRKLLDAQDTAKQQFQELTESHLALSAAHQELHLYAKQVEELTAIYERNRMAREIHDTVGHKMTALLVQLQLLREWQKRDSQKADETVGVCETLAREALDDVRLSVRTLQTENDPSLIESLKQLTEDFCKNAGVTTEFAVSGDPAIIPLSLHPTLIRTVQEALTNAKRHGGAAACSIQLACTTDSISLVIKDDGKGNPEAALGFGLLNMKKRAAEHGGMIRFESERDQGFTVNAEFSLANKKWSFGPVQQKESLS	failed
MKALHFGAGNIGRGFIGKLLADAGIQLTFADVNQVVLDALNARHSYQVHVVGETEQVDTVSGVDAVSSIGDDVVDLIAQVDLVTTAVGPVVLERIAPAIAKGLVKRKEQGNESPLNIIACENMVRGTTQLKGHVMNALPEDAKAWVEEHVGFVDSAVDRIVPPSASATNDPLEVTVETFSEWIVDKTQFKGALPNIPGMELTDNLMAFVERKLFTLNTGHAITAYLGKLAGHQTIRDAILDEKIRAVVKGAMEESGAVLIKRYGFDADKHAAYIQKILGRFENPYLKDDVERVGRQPLRKLSAGDRLIKPLLGTLEYSLPHKNLIQGIAGAMHFRSEDDPQAQELAALIADKGPQAALAQISDLDANSEVVSEAVTAYKAMQ	failed
MKALVVSDDINFLKQACTLVNGKAEYDAVYVGEGRVSGVGASTLYTVKKGTPYDAVADGILEIMGNYDIIVAGSTEFGREVAGYIAGKTGYYAATEIFSLEFSNGKAKTKRFFYGGKTVIEEESDAKVFTVAPGVIEAKEFESKPEEKDLPIKPSKVRVNKVVPKNAGGVR	failed
MKANLERVPIRIGSSWRYKKIDGVEKNCHWHFHNEYELVLFRKNNAKGMVGHFERVIEKNTLWLIPPKMPHAIELLEEKELQCESHIIWLPKEWVENMIFSCTELRRMGELFKRSSNGLCFSTSTAEKVYQLIEKLFKDSILDDLGYLIQILGCLCSDKETRPLQLFSKQEASDKEGKEK	failed
MKASIEQLEPYVPEKPLATLQAELGLTELVRLSANENPYGTSPKVATAVKNWDFTQSNRYPDADAQELRQAVAQQQGIDPNSIVFSVGLDEMIVMLSRTFLATNDQVLVSAPTFSEYGLHAEIEGGQLISVPTLPNDHVNFEGLMKAITPHVKMVWLCNPNNPTGTVESLAAIEAFVQQVPPETMVLIDEAYIDFTPGAAQVTAMQLPAKYPNVVVMRTFSKAYGLANFRIGYAVFNTKYAATMQTIRLPYNVNSLAQVAALAAIDDPNFVKQTVQKNATERAKWMAFFDDQGVTYDQSGANFIFFKYPSATQLADYLVHHGYLIRTGLRPGWLRLTVGTANDNQQLQQLIREFKA	failed
MKAVTTSPSDPPDPFDPLDPVDPLASTKPEVDVVLPCLDEADALPWVLARIPPGWRALVVDNGSTDGSAEIARRLGATVVPETRRGFGAACHAGLTAATADIVCFCDCDGSLDPSLLVPFVREVRDGAADLVLGRRRPHGRGAWPAHARAGNLALARMLRRRTGLRLHDLGPLRAARREPLLALGLTDRRSGYPLQMVVRAADAGWRIAEHDVPYLPRTGVSKVTGTWRGTWQAVRDMSRVLAEPAQDGPPESGSLSSSQGGSSQLEHHHHHH	failed
MKAYALVGGPTDLWLHDIKKQLTEAKQNNDLIFGVDRGALFLEELGIIPDVAIGDFDSLQAKDLSRIEKTVKDIRYSNPIKDWTDSEIMVQTVFKDYLADKLIILGASGGRIDHFLINLLMWLNPPINQFAQRVEIIDNHNSIVFFNPGVHIIKKKPDYPYIGFATLSETEDFNISGARYDLNDYSSTYPRVFSSNEFLPNSDYFEISLKKGMIAAIYSKDINRFHNLLEHHHHHH	not failed
MKAYLGLYTARLETPARSLKEKRALIKPALERLKARFPVSAARLYGLDAWGYEVVGFTLLGNDPAWVEETMRAAARFLAEAGGFQVALEEFRLEAFELDGLL	not failed
MKCRGHKNSYFCQDSNEIKSANSNSPLCGDHSFFEMATKQRKGSRSSGRNTSSANTRKGGNFLRRIFITPIRDTFSRDKVGFVFGAILLAIALYTTIAIGSFFVHGGVDQSVVRDAPVSDILLGRAPVANLCGIRGAVWSEWLMNGLFGFGTLFLLFCVFSLSLKLMGVVKRISVVKRLIFCGVMTFWTSLAAAFIYKLSGLEGFLRWGGMHGQEWTLFLERNIGKAGLIIVLLVLAVIIAVVVRSECMGFFRRLLGLSWISIPKLPKKERKNNHDESENESLGNGYDTGESENLSGYLNNSEYEDGPAGESADDPDDYIPPHKEEGENDSSQSIQMGSMTVELAQEEEKADEALLAEIKTDPRMDLASYKFPSVDLLTQYDLQQPPIDMNEIEENQKRIIATLDSFKIHVTPIKATVGPTVTLYEVAPDSGIKISRIRNLEDDIAMSLKAVGGIRIIAPMPGKGTIGIEVPNRKPQTVSMYSVLTSKKYQESDMDLPVALGKTITNEVFIFDLCKMPHLLIAGATGQGKSVGLNAMITSLLYKKHPAELKFVLVDPKMLEFAVYEAIERHYLAKLPDEDRAIVTDMTKVVPTLNSLCIEMDNRYRMLTEARVRNIKEYNDQIISGKLSRLHGHKFLPYIVLIVDEFADLIMTSGKEVERPITRIAQKARAAGIHMVVATQRPSTDIITGIIKANFPARIAFKVFSMIDSRTILDQPGANQLVGRGDMLFYQGKDTVRLQCAFLDTPECEAVTHHISLQESYTSAYELPEYVPEGEEGGPKAFNPQEKDPLFEEVARMVVNSQQGSTSNIQRKFNIGYNRAGRLMDQLEGAGIVSPQDGSKPRQVLIQDEMSLERLFETLR	failed
MKDIIRFILRLVQNPIVLAILWFGVAIRGFWVSWTEGLANNYLIFSRSFFHALEQTPLYVEYPKEYFDLFLYGIPFTLLIAPFSIMPTMVGSALWSLCNALLLYFAIKKLEFEKWKTAIIVWLSYNGLYLSVVTQQYNAAVAAFILFTFILVERKKDFWAALMIVLGTLTKIYGIVGLAFFLFSKRKLYFLWGILFWAFVLFVVPMFYTSPQYVFDSYKEWVSILVVKNDVNELSFYQNISLLGMVRKITHAVEYSDMWLIIPGIVLFLLPYLRIGQYENRNFRLSFLASVLLFMVLFSTGTEECGYVGALIGVGIWYVSTPTYKKSFVLNTCLLLFCFALTAASSSSILFSKHFRTEYITSFALKALPCAIIWFKIIWEQLTQDYTSRTPTPFLHKKDDERIDVILPCYNPHEGWEQQLIEKHKELEGMLNGYNIRFIVVNDGSKRGFTEEAVLRLTNNLPNTIIVDNKINQGKGAAVRDGIAHSDSELALYTDYDFPYKIESVCQVIKYLEEGYDVVVANRNHTYYSQLSTRRKLASHASRFLNFMLLGLTHTDTQGGLKGFNCKGKAFLASTRIKQFLFDTEFIYKASLDDTTFIKEVPVDLRGEVMLPDMKKGVFVNELKNLLMICWRG	failed
MKDNPISPTIPLDQDGVHHGFLKLPYSRDDSAWGSVMIPITVIQNGAGKTALLTGANHGDEYEGPVALQELAATTRAEDVTGRLIIVPYFNYPAFRASARTSPIDRGNLNRAFPGRPDGTVTQKIADYFQRTLLPMADVAVDFHSGGKTLDFVPFAAAHILEDKVLQDACFAAMQAFNAPYSVQLLEIDSEGMYDTAVEEMGKVLVTTELGGGGMSTARSNAIAKKGLRNVLIHFGILQGEMQIDPSVTLDMPDGDCYLFSEHDGLFEIMIDLGEPVQEGDLVARVWSPDRTGEAPVEYRARRSGVLISRHFPGMIKSGDCAAVIGVVEG	not failed
MKDPRDFVPEDLSDLETAMLEMAEKDIRKAYTITDKQERYAALDALKTEIINKFMPETEEDCKFSVDQIATVFKQLQAKIVRSNILDTKKRIDGRDLSTVRPIQSEVGILPRTHGSALFTRGETQAIVVATLGTGEDEQYIDSLTGLEHHHHHH	not failed
MKDSIDFGNMEIPRLFRKLLIPTVLGMVFSAVFVITDGIFVGKGIGSDALAAVNITAPLFMITTGIGLMFGVGASVVASIHLSQGKRKVASINITQALAFSALLILVLSALCCYFAEPIGRLLGSSERLLPLVVEYMNWYVPFLVFYLLLSAGMFYIRLDGSPNYAMMCNAVSAIINIILDYVFIFQLGWGMMGAAFATSLGTMVGGLMTLIYLLRFSRNVGIYRIKLSRKSMRLTCRNIGYMIRLGSSAFISEASIASMMFLGNYVFISHLGESGVAAFSIVCYFFPIIFMVYNAIAQSAQPIISYNFGQQNPGRVARTIRLALKTALGCGIFFFAATLVFNHQIVGLFIDKSYQAYDIAVNGIPYFAVGYLFFALNIVGIGYYQSIERARRATVITLFRGTLFMLAGFLLLPPVLGVRGIWLAVPLAELLTLLLIIGIYLKDSFAVRR	failed
